Patent publication US8580492B2, “Screening method for the identification of inhibitors of HIV Tat methylation by the lysine methyltransferase Set7/9” (priority 2007, dated 2013)
Ends that are not written are not given here.

Experiments:
Format in all cases: biochemical
recombinant Set9 = molecular target: T1, recombinant Set9 (Homo sapiens, UniProt Q8WTS6); test: In vitro methylation assay with recombinant Set9 (radiolabeled SAM autoradiography; MALDI-TOF with nonradioactive SAM); settings: confirmed by MALDI-TOF
T1 construct: purchased Upstate
T1 sequence (Q8WTS6 whole entry, looked up): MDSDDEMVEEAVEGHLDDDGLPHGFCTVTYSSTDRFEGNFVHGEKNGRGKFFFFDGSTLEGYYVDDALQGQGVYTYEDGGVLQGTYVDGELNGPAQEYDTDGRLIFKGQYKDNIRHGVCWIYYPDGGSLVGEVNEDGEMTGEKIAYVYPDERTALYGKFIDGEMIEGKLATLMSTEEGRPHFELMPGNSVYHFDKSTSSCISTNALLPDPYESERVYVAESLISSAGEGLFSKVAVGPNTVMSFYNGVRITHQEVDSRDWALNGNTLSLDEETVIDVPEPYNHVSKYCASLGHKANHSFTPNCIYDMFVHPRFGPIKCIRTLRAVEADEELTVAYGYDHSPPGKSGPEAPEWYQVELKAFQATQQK
Method: (§1) Methylation assays were performed as described. (Nishioka et al. (2002) supra. In brief, 2 μg of calf thymus histones (Sigma), synthetic Tat protein or recombinant GST-IκBα were incubated with 0, 0.5, 1 or 2 μg of recombinant Set9 (specific activity 182 mU/mg, Upstate) or 0, 1 and 2 μg of G9a (specific activity 98 mU/mg, Upstate) in a buffer containing 50 mM TrisHCl pH 8.5, 5 mM MgCl2, 4 mM DTT and 1.1 μCi of ^3H-labeled S-adenosyl methionine (SAM) (Perkin Elmer) 30 min at 30° C. Reactions were stopped with sodium dodecyl sulfate (SDS) sample buffer and fractionated in a 15% SDS-polyacrylamide gel electrophoresis (SDS-PAGE) gel. After Coomassie staining and destaining, gels were treated with Amplify (Amersham Biosciences) for 30 min, dried and exposed to hyper-film (Kodak) overnight. The reactions performed with Tat peptides contained 100 μM of the different peptides and 1 μg of Set9 enzyme and were fractionated in a 10-20% Tris-Tricine gel (BioRad). For mass-spectrometry analysis, reactions were performed in the presence of 2 mM SAM (New England Biolabs) and analyzed in a MALDI-TOF instrument. In vitro acetylation assays were performed as described. Ott et al. (1999) supra.

p300 = molecular target: T2, p300 (Homo sapiens, UniProt Q09472); test: In vitro acetylation assay with recombinant p300 and 14C-AcCoA; settings: recombinant p300, 14C-AcCoA, autoradiography
T2 construct: Recombinant GST-p300 HAT was expressed in the BL21 strain of Escherichia coli; GST (N); made in house; host or cells: Escherichia coli BL21
T2 sequence (Q09472 1287-1663 limits assumed): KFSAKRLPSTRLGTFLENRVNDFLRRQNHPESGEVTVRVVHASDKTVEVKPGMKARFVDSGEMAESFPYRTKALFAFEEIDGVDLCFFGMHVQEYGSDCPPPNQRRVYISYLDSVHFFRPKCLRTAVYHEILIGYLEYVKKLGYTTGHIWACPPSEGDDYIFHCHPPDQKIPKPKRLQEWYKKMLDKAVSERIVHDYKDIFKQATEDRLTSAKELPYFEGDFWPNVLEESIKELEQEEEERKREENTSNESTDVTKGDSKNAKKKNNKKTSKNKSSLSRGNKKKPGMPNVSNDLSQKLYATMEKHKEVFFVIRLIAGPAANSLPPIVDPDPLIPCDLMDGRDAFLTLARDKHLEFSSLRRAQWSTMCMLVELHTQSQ
Method: Recombinant GST-p300 HAT was expressed in the BL21 strain of Escherichia coli and purified on glutathione-Sepharose beads (Amersham Pharmacia Biotech) following manufacturer's protocol.
as §1

G9a = test: In vitro methylation assay with recombinant G9a; settings: recombinant G9a 0, 1 and 2 μg, radiolabeled SAM
Method: as §1

Molecule: K50Ac: ARM peptide carrying an acetyl group at position 50 (ISYGRK(Ac)KRRQRRRP; not fully specified)
- methylation by Set9 (recombinant Set9): No methylation

Molecule: K51me: ARM peptide monomethylated at K51 (ISYGRKK(Me)RRQRRRP)
- acetylation by p300 (p300): acetylated

B1: Tat protein: full-length synthetic Tat protein (72 amino acids) (peptide, UniProt P04608 1-72, looked up, fragment)
chain: MEPVDPRLEPWKHPGSQPKTACTNCYCKKCCFHCQVCFITKALGISYGRKKRRQRRRAHQNSQTHQASLSKQ
- methylation by Set9 (recombinant Set9): methylated in response to increasing amounts of Set9 enzyme
- methylation by G9a (G9a): did not result in methylation
